Where two headings read alike, the source gives them in different places.
How the values were obtained:
[1] = target: T1, human GPC3 on tumor cell lines (HepG2, Huh-7, NCI-H661, MKN-45, NCI-H23, BxPC-3, NCI-H292) (human, UniProt P51654 25-554); assay: cell-based or functional assay
[2] = target: T1, human GPC3 on tumor cell lines (HepG2, …); assay: cell-based or functional assay; remark: listed apart in the source
[3] = target: T1, human GPC3 on tumor cell lines (HepG2, …); assay: cell-based or functional assay; remark: listed apart in the source
[4] = target: T1, human GPC3 on tumor cell lines (HepG2, …); assay: cell-based or functional assay; remark: listed apart in the source
[5] = target: T1, human GPC3 on tumor cell lines (HepG2, …); assay: cell-based or functional assay; remark: listed apart in the source
[6] = target: T1, human GPC3 on tumor cell lines (HepG2, …); assay: cell-based or functional assay; remark: listed apart in the source
[7] = target: T1, human GPC3 on tumor cell lines (HepG2, …); assay: cell-based or functional assay; remark: listed apart in the source
[8] = target: T1, human GPC3 on tumor cell lines (HepG2, …); assay: flow cytometry on HepG2 and Huh-7 cells
Procedure: Periplasmic extracts were screened for human and cyno GPC3 binding in flow cytometry using CHO Flp-In cells (Invitrogen cat nr. K6010) expressing either human GPC3 (accession number P51654; Q25-R358, S359-H580) or cyno GPC3 (accession number P51654; Q3-R358; S359-H559), respectively. In brief, 1×10⁵ cells were incubated in 1:5 diluted periplasmic extracts for 30 min at 4° C., and then washed 3 times. As a control, the parental CHO Flp-In cell line (Invitrogen cat nr. K6010) was included. […] Samples were washed and resuspended in FACS Buffer (D-PBS (Gibco) with 10% FBS (Sigma) and 0.05% sodium azide (Merck)) supplemented with 5 nM TOPRO3 (Molecular Probes, cat nr T3605). Cell suspensions were then analyzed on a FACS Array. Gating was set on live, intact cells using forward/side scatter and TOPRO3 channel fluorescence parameters.
Variants were evaluated for binding to HepG2, Huh-7 and CHO Flip-In cyno-GPC3 cells by flow cytometry, as described in Example 1.

[9] = target: T2, cyno GPC3 expressed on CHO Flp-In cells (cynomolgus); assay: flow cytometry on CHO Flp-In cyno GPC3 cells
T2 construct: range 3-559; On cells; also called cyGPC3 CHO; CHO-cGPC3

[10] = target: T1, human GPC3 on tumor cell lines (HepG2, …); assay: flow cytometry on HepG2 cells
[11] = target: T2, cyno GPC3 expressed on CHO Flp-In cells; assay: flow cytometry on CHO Flp-In cyno GPC3 cells; remark: listed apart in the source
[12] = target: T1, human GPC3 on tumor cell lines (HepG2, …); assay: flow cytometry on Huh-7 cells
[13] = target: T1, human GPC3 on tumor cell lines (HepG2, …); assay: flow cytometry on Huh-7 cells; remark: listed apart in the source
[14] = target: T1, human GPC3 on tumor cell lines (HepG2, …); assay: flow cytometry on HepG2 cells; remark: listed apart in the source
[15] = target: T2, cyno GPC3 expressed on CHO Flp-In cells; assay: flow cytometry on CHO Flp-In cyno GPC3 cells; remark: listed apart in the source

B1: A022600031 (bispecific antibody)
chain: DVQLVESGGGLVQPGGSLRLSCVASGDVHKINFLGWYRQAPGKEREKVAHISIGDQTDYADSAKGRFTISRDESKNMVYLQMNSLKPEDTAVYFCRAFSRIYPYDYWGQGTLVTVSSGGGGSGGGGSGGGGSGGGGSGGGGSGGGGSGGGGSEVQLVESGGGLVQAGGSLRLSCVASGSIFRSVFSSSTMEWYRQPPGKKRELVARIAPGDGTNYGALYADSVKGRFTISRDDAKKTVDLQMNSLKPEDTGVYFCASGVAWGQGTLVTVSSGGGGSGGGGSGGGGSGGGGSGGGGSGGGGSGGGGSEVQLVESGGGVVQPGGSLRLSCAASGLTFSSYAMGWFRQAPGKERERVVSISRGGGYTYYADSVKGRFTISRDNSENTVYLQMNSLRPEDTALYYCAAARYWATGSEYEFDYWGQGTLVTVSS
IC50 (M), Incucyte human TDC HepG2-Nuclight green assay [1]: 1.5e-08 M

B2: A022600027 (other)
chain: DVQLVESGGGLVQPGGSLRLSCVASGDVHKINFLGWYRQAPGKEREKVAHISIGDQTDYADSAKGRFTISRDESKNMVYLQMNSLKPEDTAVYFCRAFSRIYPYDYWGQGTLVTVSSGGGGSGGGGSGGGGSGGGGSGGGGSGGGGSGGGGSEVQLVESGGGLVQPGGSLRLSCVASGFTFSSFAMTWVRRPPGKGLEWVATITNGGVTSYRDSVKGRFTISRDNAKNTLYLEMTSLNPEDTAVYICANARRTGPRAPTDIGSYRGQGTLVTVSSGGGGSGGGGSGGGGSGGGGSGGGGSGGGGSGGGGSEVQLVESGGGVVQPGGSLRLSCAASGLTFSSYAMGWFRQAPGKERERVVSISRGGGYTYYADSVKGRFTISRDNSENTVYLQMNSLRPEDTALYYCAAARYWATGSEYEFDYWGQGTLVTVSS
IC50 (M), Incucyte human TDC HepG2-Nuclight green assay [1]: 8.6e-09 M

B3: A022600167 (other)
chain: DVQLVESGGGVVQPGGSLRLSCVASGYVHKINFYGWYRQAPGKEREKVAHISIGDQTDYADSAKGRFTISRDESKNTVYLQMNSLRPEDTAAYYCRALSRIWPYDYWGQGTLVTVSSGGGGSEVQLVESGGGLVQPGGSLRLSCVASGFTFSSFAMTWVRRPPGKGLEWVATITNGGVTSYRDSVKGRFTISRDNAKNTLYLEMTSLNPEDTAVYICANARRTGPRAPTDIGSYRGQGTLVTVSSGGGGSGGGGSGGGGSGGGGSGGGGSGGGGSGGGGSEVQLVESGGGVVQPGGSLRLSCAASGFTFRSFGMSWVRQAPGKGPEWVSSISGSGSDTLYADSVKGRFTISRDNSKNTLYLQMNSLRPEDTALYYCTIGGSLSRSSQGTLVTVSSA
HepG2 on Incucyte IC50 [2]: 1.92 nM
HepG2 on Incucyte Max % killing [2]: 98%
Huh7 on xCELLigence IC50 [2]: 8.61 nM
Huh7 on xCELLigence Max % killing [2]: 91%
HepG2 on Incucyte IC50 [3]: 1.92 nM
HepG2 on Incucyte Max % killing [3]: 98%
Huh7 on xCELLigence IC50 [3]: 8.61 nM
Huh7 on xCELLigence Max % killing [3]: 91%
HepG2 on Incucyte IC50 [4]: 1.92 nM
HepG2 on Incucyte Max % killing [4]: 98%
Huh7 on xCELLigence IC50 [4]: 8.61 nM
Huh7 on xCELLigence Max % killing [4]: 91%
IC50 (M), xCELLigence human TDC assay, Hep-G2 [5]: 9.2e-11 M
IC50 (M), xCELLigence human TDC assay, Huh-7 [5]: 4.7e-10 M
IC50 (M), xCELLigence human TDC assay, NCI-H661 [5]: 1.8e-10 M

B4: A022600103 (other)
chain: DVQLVESGGGVVQPGGSLRLSCVASGYVHKINFYGWYRQAPGKEREKVAHISIGDQTDYADSAKGRFTISRDESKNTVYLQMNSLRPEDTALYYCRALSRIWPYDYWGQGTLVTVSSGGGGSEVQLVESGGGLVQPGGSLRLSCVASGFTFSSFAMTWVRRPPGKGLEWVATITNGGVTSYRDSVKGRFTISRDNAKNTLYLEMTSLNPEDTAVYICANARRTGPRAPTDIGSYRGQGTLVTVSSGGGGSGGGGSGGGGSGGGGSGGGGSGGGGSGGGGSEVQLVESGGGVVQPGGSLRLSCAASGFTFRSFGMSWVRQAPGKGPEWVSSISGSGSDTLYADSVKGRFTISRDNSKNTLYLQMNSLRPEDTALYYCTIGGSLSRSSQGTLVTVSSA
HepG2 on Incucyte IC50 [3]: 1.23 nM
HepG2 on Incucyte Max % killing [3]: 96%
Huh7 on xCELLigence IC50 [3]: 7.11 nM
Huh7 on xCELLigence Max % killing [3]: 71%
IC50 (M), Incucyte human TDC HepG2-Nuclight green assay [6]: 2.04e-09 M
Max % Killing, Incucyte human TDC HepG2-Nuclight green assay [6]: 92%
IC50 (M), Incucyte human TDC HepG2-Nuclight green assay [7]: 5.43e-10 M
Max % Killing, Incucyte human TDC HepG2-Nuclight green assay [7]: 90%

B5: A022600345 (VHH)
VHH: EVQLVESGGGVVQPGGSLRLSCAASGFTFSSFAMTWVRRPPGKGLEWVATITNAGVTSYADSVKGRFTISRDNAKNTLYLQMNSLRPEDTALYICANARRTGPRAPTDIGSYRGQGTLVTVSS
fold increase in binding potency against parental A0226018C08 [8]: 2 fold
EC50 [9]: 0.15 nM
EC50 [10]: 0.391 nM
fold increase in binding potency against parental A0226018C08 [11]: 2 fold
EC50 [12]: 0.276 nM

B6: A022600351 (VHH)
VHH: EVQLVESGGGVVQPGGSLRLSCAASGFTFSSFAMTWVRRPPGKGLEWVATITNKGVTSYADSVKGRFTISRDNAKNTLYLQMNSLRPEDTALYICANARRTGPRAPTDIGSYRGQGTLVTVSS
notes: also called A0226000351
fold increase in binding potency against parental A0226018C08 [8]: 2 fold
EC50 [9]: 0.21 nM
EC50 [10]: 0.431 nM
fold increase in binding potency against parental A0226018C08 [11]: 2 fold
EC50 [12]: 0.477 nM

B7: A022600168 (other)
chain: DVQLVESGGGVVQPGGSLRLSCVASGYVHKINFYGWYRQAPGKEREKVAHISIGDQTDYADSAKGRFTISRDESKNTVYLQMNSLRPEDTAAYYCRALSRIWPYDYWGQGTLVTVSSGGGGSEVQLVESGGGLVQPGGSLRLSCVASGFTFSSFAMTWVRRPPGKGLEWVATITNGGVTSYRDSVKGRFTISRDNAKNTLYLEMTSLNPEDTAVYICANARRTGPRAPTDIGSYRGQGTLVTVSSGGGGSGGGGSGGGGSGGGGSGGGGSGGGGSGGGGSEVQLVESGGGLVQPGGSLRLSCVASGSIFRSVFSSSTMEWYRQPPGKKRELVARIAPGDGTNYGALYADSVKGRFTISRDDAKKTVDLQMNSLKPEDTGVYFCASGVAWGQGTLVTVSSGGGGSGGGGSGGGGSGGGGSGGGGSGGGGSGGGGSEVQLVESGGGVVQPGGSLRLSCAASGFTFRSFGMSWVRQAPGKGPEWVSSISGSGSDTLYADSVKGRFTISRDNSKNTLYLQMNSLRPEDTALYYCTIGGSLSRSSQGTLVTVSSA
HepG2 on Incucyte IC50 [2]: 0.367 nM
HepG2 on Incucyte Max % killing [2]: 103%
Huh7 on xCELLigence IC50 [2]: 0.198 nM
Huh7 on xCELLigence Max % killing [2]: 107%
HepG2 on Incucyte IC50 [3]: 0.367 nM
HepG2 on Incucyte Max % killing [3]: 103%
Huh7 on xCELLigence IC50 [3]: 0.198 nM
Huh7 on xCELLigence Max % killing [3]: 107%
HepG2 on Incucyte IC50 [4]: 0.367 nM
HepG2 on Incucyte Max % killing [4]: 103%
Huh7 on xCELLigence IC50 [4]: 0.198 nM
Huh7 on xCELLigence Max % killing [4]: 107%
IC50 (M), xCELLigence human TDC assay, Hep-G2 [5]: 7.3e-11 M
IC50 (M), xCELLigence human TDC assay, Huh-7 [5]: 2.4e-11 M
IC50 (M), xCELLigence human TDC assay, NCI-H661 [5]: 1.4e-10 M

B8: A022600314 (VHH)
VHH: EVQLVESGGGVVQPGGSLRLSCAASGSIFRSVFSSSTMEWYRQAPGKKRELVARIAPGEGTYYGALYADSVKGRFTISRDNAKNTVYLQMNSLRPEDTALYYCASGVAWGQGTLVTVSS
notes: also called A0226000314
fold decrease in binding potency against parental A0226015A08 [8]: < 2 fold
EC50 [13]: 9.3 nM
EC50 [14]: 16 nM
EC50 [15]: 12 nM
fold decrease in binding potency against parental A0226015A08 [11]: < 2 fold

Reference: patent publication US20240343823A1 (Ablynx, published 2024)
